Results: the supplement of paper PMC9170038

System: MS2 coat protein
Test: apparent KD of MS2 coat protein; designed switch direction (-1 OFF switch, 1 ON switch): 1; higher = weaker reporter binding
In short: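 Apparent KD, taken as the median over clusters for each design, was obtained by curve-fitting normalised cluster fluorescence. Designed RNA switches had been transcribed on Illumina chips by stalled E. coli RNA polymerase and titrated with SNAP-549-labelled MS2 coat protein, doubling from 0.7 or 1.5 nM to 3 µM.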

[1] = input ligand: microRNA oligo, concentration not stated
[2] = Eterna round: R95, input ligand: FMN 200 uM
[3] = Eterna round: R95, input ligand: microRNA oligo, concentration not stated
[4] = Eterna round: R95, input ligand: none

| Sequence | apparent KD of MS2 coat protein (input ligand: FMN 200 uM) | apparent KD of MS2 coat protein [1] | apparent KD of MS2 coat protein (input ligand: none) | apparent KD of MS2 coat protein [2] | apparent KD of MS2 coat protein [3] | apparent KD of MS2 coat protein [4] |
| --- | --- | --- | --- | --- | --- | --- |
| AGCUAGUACCGAGGAUAUACUUACAUGAGGACUACCCAUGUAUACAUGGUUCAAUAGGACUACAUGUAGAAGGCGGUACUAGCA [jandersonlee JLSSNG2 1.24 1FMN F5CU+F7U.1] (Eterna round: R96, puzzle: Same State NG 2) | 595 nM | 26.1 nM | 75.6 nM |  |  |  |
| GGAGCCUGCACUGAGGAUAUUCGUAGUGUAACAUGAGGAUCACCCAUGUGUCGCCGUAGCGACUGGGAGAAGGCAGUGCGGCUCG [JL-ss2-3.07 ViennaUCT mod] (puzzle: Same State 2) |  |  |  | 25.9 nM | 48.4 nM | 84.3 nM |
| UCCGCUAUCUAGAAGGAUAUGCGUAUAUAAACAUGAGGAUCACCCAUGUACCGGCGAAAACCGGUGCAGAAGGUUUAGCUAGUGA [Rediin] (puzzle: Same State 2) |  |  |  | 42.3 nM | 273 nM | 502 nM |
| GCGCGAAAGAGCGAGGAUAUGCGGCGUAUAACAUGAGGAUCACCCAUGUCCUUCGAAUCUUGUACGCAGAAGGCGCUACAGGCGC [Robot Leg] (puzzle: Same State 2) |  |  |  | 154 nM | 61 nM | 62.2 nM |
| AAAGACAUGGUGCAGGAUAUAUUAAUAGUCACAUGAGGAUCACCCAUGUUCAGAUAUCUGAACGAGUAGAAGGGCGAUGAAAAAA [SameState2 Malc#5] (Eterna round: R96, puzzle: Same State 2) | 530 nM | 28.7 nM | 204 nM |  |  |  |
| AGUCCAGCCUGAGCUGGACAAAAGCAUGUACAUGAGGAUCACCCAUGUCAUGUACAAGCUUUUUGCUCGUUUUAAAA [Zipper 46 - 13] (Eterna round: R96, puzzle: Sensor for hsa-mir-208a) | 633 nM | 12.9 nM | 611 nM |  |  |  |
| GUAUAACAUGAGGAUCACCCAUGUCAUCUAAGUCGAGGAUAUGGGAAUUAAUUAAUUAAACCAGAAGGCGAAAAUG [Mat - Same State 1 - D93] (puzzle: Same State 1) |  |  |  | 48.2 nM | 291 nM | 300 nM |
| GAGGAUGAUUUACAGGAUAUAUAGAAGAUGACAUGAGGAUCACCCAUGUAAGAGAGAGGAGGGAGAUAGAAGGGUAAGGGAUGUG [JR_SS2_Sub41] (puzzle: Same State 2) |  |  |  | 35.4 nM | 27.8 nM | 49.6 nM |
| GCGAGCGUACUUGCAGACAUGAGGAUCACCCAUGUAACUGGACAGGAUAUGGUACCGUUUCGGUACCAGAAGGGUUUAUAUGUC [JL SSNG3 3.52] (Eterna round: R96, puzzle: Same State NG 3) | 40.4 nM | 25.7 nM | 57.4 nM |  |  |  |
| UUGAAGAAUUAAGGAUAUUGAAUACAUAUGUUUAACAUGAGGAUCACCCAUGUGGGUUGCGGUGUCGAGAAGGUAAAAUACUAG [Mat - same State NG 2 - JL mod - D97] (Eterna round: R96, puzzle: Same State NG 2) | 236 nM | 278 nM | 270 nM |  |  |  |
| AGAGCCGGCACUGAGGAUAUUCAUAUUAAAACAUGAGGAUCACCCAUGUAGGCCAGAAGGCCUUGGGAGAAGGCAGGUCGGCUCU [Mat - Same State 2 - Mod of UCT - D61] (puzzle: Same State 2) |  |  |  | 22.3 nM | 211 nM | 507 nM |
| UCUUGGUUUUUGCUCGUUUUUUGUGUUGAACAUGAGGAUCACCCAUGUAUUGUACGGUCCAAUUUAAUAAUAAUCCA [JMF 74] (puzzle: Sensor for hsa-mir-208a) |  |  |  | 59 nM | 57.1 nM | 82.1 nM |
| CAAACUUAGUAGGGUAGGUACCCAGGAUGACAUGAGGAUCACCCAUGUAAGAGCUUUUUGCUCGUCAUUAACAGUUG [JR_SHM208a_Sub018] (puzzle: Sensor for hsa-mir-208a) |  |  |  | 57.5 nM | 102 nM | 74.5 nM |
| GGUAUCGACGCAGGAUAUGCUAUCCUUUGGGUAGCAGAAGGGUGGACAUGAGGAUCACCCAUGUGGGUGCCAGGGCGUGAGCCC [JL SSNG1 1.83] (Eterna round: R96, puzzle: Same State NG 1) | 283 nM | 12.8 nM | 440 nM |  |  |  |
| GGACGUCAUCUCACUGAUUAAACAUGAGGAUCACCCAUGUCAGAGGAUAUGAGUCCGAUUAGGACUCAGAAGGCUGUGACGUCC [Fiskers NG3ss - 46] (Eterna round: R96, puzzle: Same State NG 3) | 19.6 nM | 9.14 nM | 16 nM |  |  |  |
| UUAAUGAUGAUAGGAUAUACAUGAGGAAUUCUCGUAGAAGGAUCAUGACAUGAGGAUCACCCAUGUAACGCUCCGUAGAGCGUA [JL SSNG1 1.15] (Eterna round: R96, puzzle: Same State NG 1) | 572 nM | 385 nM | 1060 nM |  |  |  |
| GGAUGACGGACAGGAUAUUGGUGCUAAUGGUGUCAAGAAGGGUCUUCGAUAUAUACGACCAGUUACAUGAGGAUCACCCAUGUU [JR_SSNG1_Sub034] (Eterna round: R96, puzzle: Same State NG 1) | 20.2 nM | 30.5 nM | 40 nM |  |  |  |
| AUAAGUUUGAUGCUCGUCUCUCCGUACAAACAUGAGGAUCACCCAUGUGGUCGGGAAGUAGCCCGGCCGGUAUGGCC [Atusri] (puzzle: Sensor for hsa-mir-208a) |  |  |  | 16.7 nM | 14.1 nM | 15.8 nM |
| GGAGCUGGCACCGAGGAUAUUCAUAUUAAAACAUGAGGAUCACCCAUGUAGGCCAGAAGGCCUUGGGAGAAGGCGGAUCAGCUCG [Xeonanis - 12] (puzzle: Same State 2) |  |  |  | 30.8 nM | 532 nM | 532 nM |
| CGCCAACGCAUAGGAUAUGCUUGUGUGGAUCGGGCAGAAGGGUGGUUGGAAACAUGAGGAUCACCCAUGUAAAAGUAAGAAAAU [Rierinqu] (Eterna round: R96, puzzle: Same State NG 1) | 1450 nM | 926 nM | 668 nM |  |  |  |
| AGCUAUUAAUCAGGAUAUGGUGACAUGAGGAUCACCCAUGUAUAGAUGAUUAAAUGUGGUCUAUACUAGAAGGGAUUACUAACA [SameState NG2 #53] (Eterna round: R96, puzzle: Same State NG 2) | 2210 nM | 478 nM | 626 nM |  |  |  |
| ACUCAGUACAAUUUAGAUCUACAUGAGGAUCACCCAUGUACUGAGGAUAUCAGCUCGAUUAGAGCUGAGAAGGCAGUUGUACUA [SSNG3/10-A2] (Eterna round: R96, puzzle: Same State NG 3) | 82.3 nM | 161 nM | 125 nM |  |  |  |
| AUCAAUCUAUCUCAGGAUAUCAUGUCAAAGACAUGAGGAUCACCCAUGUACCAGGAAACUGGUUAUGAGAAGGGAGAUAGAUUGA [Mat - Same State 2 - Mod - D30] (puzzle: Same State 2) |  |  |  | 56.2 nM | 158 nM | 53.2 nM |
| AGUCCAGCCUGAGCUGGACAAAAGCAUGUACAUGAGGAUCACCCAUGUUCAUGUACAAGCUUUUUGCUCGUCUUAUU [salish99_208a_r3_047] (puzzle: Sensor for hsa-mir-208a) |  |  |  | 457 nM | 14.1 nM | 725 nM |
| AAGCUGUGUGUAUGGUCAUUGUCAACGGUACAUGAGGAUCACCCAUGUAGCAUUAACCAUCCGACUCUGUUGGAGGU [high scoring solution 6] (Eterna round: R96, puzzle: Sensor for hsa-mir-208a) | 58.7 nM | 40.7 nM | 51.7 nM |  |  |  |
| UUUAUACAUGAGGAUCACCCAUGUCAACAAAGUCGAGGAUAUGGGCAUAUUAUCUUAUUUCCAGAAGGCGAAUUCU [salish99_ss1_r3_090] (Eterna round: R96, puzzle: Same State 1) | 101 nM | 305 nM | 378 nM |  |  |  |
| UCUUGGUUUUUGCUCGUUUUUUGUGUUGAACAUGAGGAUCACCCAUGUAUUGUACAAUCCAGUUUGAUAAUGGUCCA [Mod of one of JR's submissions] (puzzle: Sensor for hsa-mir-208a) |  |  |  | 80.2 nM | 77.6 nM | 102 nM |
